From patent US20140120095A1 (Boehringer Ingelheim, published 2014)

T1: recombinant mouse VEGF164 (R&D Systems) (mouse, UniProt Q00731-2 27-190)
T1 construct: also called rmVEGF164; mVEGF164
T1 sequence (looked up): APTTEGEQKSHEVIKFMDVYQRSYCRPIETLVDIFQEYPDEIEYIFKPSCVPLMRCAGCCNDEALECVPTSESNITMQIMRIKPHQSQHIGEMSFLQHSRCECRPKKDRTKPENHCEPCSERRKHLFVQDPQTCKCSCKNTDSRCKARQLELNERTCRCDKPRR

T2: recombinant human VEGF121 (R&D Systems) (human, UniProt P15692-9 27-147)
T2 construct: also called rhVEGF121
T2 sequence (looked up): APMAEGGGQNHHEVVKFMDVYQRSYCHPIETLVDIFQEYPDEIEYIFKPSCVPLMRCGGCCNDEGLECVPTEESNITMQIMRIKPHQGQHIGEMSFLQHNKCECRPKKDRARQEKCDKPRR

T3: VEGFD (UniProt O43915 93-201, limits assumed)
T3 sequence (looked up): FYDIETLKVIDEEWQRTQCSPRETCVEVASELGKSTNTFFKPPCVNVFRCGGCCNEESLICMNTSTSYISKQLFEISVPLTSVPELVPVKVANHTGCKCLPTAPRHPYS

T4: VEGFC (UniProt P49767 103-227, limits assumed)
T4 sequence (looked up): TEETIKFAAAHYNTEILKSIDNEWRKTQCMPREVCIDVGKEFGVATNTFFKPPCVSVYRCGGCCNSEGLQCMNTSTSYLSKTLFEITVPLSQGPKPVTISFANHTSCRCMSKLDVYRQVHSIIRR

T5: VEGFB (UniProt P49765-2 22-188, limits assumed)
T5 sequence (looked up): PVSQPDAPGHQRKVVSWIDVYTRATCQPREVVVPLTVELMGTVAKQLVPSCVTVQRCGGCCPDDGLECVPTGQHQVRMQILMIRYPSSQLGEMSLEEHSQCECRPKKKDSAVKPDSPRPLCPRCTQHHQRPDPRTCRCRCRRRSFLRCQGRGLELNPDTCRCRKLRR

T6: PIGF (UniProt P49763-2 21-149, limits assumed)
T6 construct: also called placenta growth factor
T6 sequence (looked up): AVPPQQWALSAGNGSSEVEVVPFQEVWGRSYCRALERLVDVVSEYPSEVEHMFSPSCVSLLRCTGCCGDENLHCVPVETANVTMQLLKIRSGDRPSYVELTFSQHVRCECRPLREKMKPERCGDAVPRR

B1: VEGFBII23A06 (VHH, not shown: small tags and cut ends)
VHH: EVQLVESGGGLVQPGDSLKLSCAFSGRTFSSYSMGWFRQAQGKEREFVVAISSGGFIYDAVSLEGRFTISRDNTKNTVYLQTPSLKPEDTAVYYCAASRAYGSSRLRLADTYDYWGQGTQVTVSS
B2: VEGFBII23A06 (VHH)
VHH: EVQLVESGGGLVQPGDSLKLSCAFSGRTFSSYSMGWFRQAQGKEREFVVAISSGGFIYDAVSLEGRFTISRDNTKNTVYLQTPSLKPEDTAVYYCAASRAYGSSRLRLADTYDYWGQGTQVTVSS
B3: VEGFBII5B05 (VHH)
VHH: EVQLVESGGGLVQPGGSLRLSCVASGIRFMSMAWYRQAPGKHRELVARISSGGTTAYVDSVKGRFTISRDNSKNTVYLQMNSLKAEDTAVYYCNTFSSRPNPWGAGTQVTVSS
notes: also called VEGFBII05B05; VEGFBII5B05(wt)
B4: VEGFBII23B04 (VHH, not shown: small tags and cut ends)
VHH: EVQLVESGGGLVQTGDSLRLSCEVSGRTFSSYSMGWFRQAQGKEREFVVAISKGGYKYDSVSLEGRFTISKDNAKNTVYLQINSLKPEDTAVYYCASSRAYGSSRLRLADTYEYWGQGTQVTVSS
notes: also called VEGFBII23B4
B5: VEGFBII23B04 (VHH)
VHH: EVQLVESGGGLVQTGDSLRLSCEVSGRTFSSYSMGWFRQAQGKEREFVVAISKGGYKYDSVSLEGRFTISKDNAKNTVYLQINSLKPEDTAVYYCASSRAYGSSRLRLADTYEYWGQGTQVTVSS
notes: also called VEGFBII23B4

Key:
[1] = molecular target: T1, recombinant mouse VEGF164 (R&D Systems); assay: binding ELISA, coated rmVEGF164
Method: Cross-reactivity to mouse VEGF164 is determined using a binding ELISA. […] Wells are blocked with a casein solution (1% in PBS). […] A mouse VEGF164 reactive mAb is included as positive control.

[2] = molecular target: T7, recombinant human VEGF165 (human, UniProt P15692-4 27-191, biotinylated in the competition assays); assay: competition ELISA, biotinylated VEGF165 to coated VEGFR1-Fc
T7 construct: also called hVEGF165; rhVEGF165

[3] = molecular target: T7, recombinant human VEGF165; assay: SPR (Biacore), immobilised VEGF165, Two State Reaction model
Method: (§1) Samples are injected for 2 min and allowed to dissociate up to 20 min at a flow rate of 45 μl/min. In between sample injections, the chip surface is regenerated with 100 mM HCl. HBS-EP+(Hepes buffer pH7.4+EDTA) is used as running buffer. Binding curves are fitted using a Two State Reaction model by Biacore T100 Evaluation Software v2.0.1.
^{(a)}Heterogeneous binding curve resulting in no 1:1 fit, curves are fitted using a Two State Reaction model by Biacore T100 Evaluation Software v2.0.1

[4] = molecular target: T7, recombinant human VEGF165; assay: SPR (Biacore), periplasmic extract over immobilised VEGF165, two phase decay fit
Method: Dissociation rates of receptor-blocking VHHs are analyzed on Biacore (Biacore T100 instrument, GE Healthcare). HBS-EP+buffer is used as running buffer and experiments are performed at 25° C. […] After immobilization, surfaces are deactivated with 10 min injection of 1M ethanolamine pH8.5. […] Periplasmic extracts of VHHs are injected at a 10-fold dilution in running buffer for 2 min at 45 μl/min and allowed to dissociate for 10 or 15 min. Between different samples, the surfaces are regenerated with regeneration buffer. Data are double referenced by subtraction of the curves on the reference channel and of a blank running buffer injection. The dissociation phase of the processed curves is evaluated by fitting a two phase decay model in the Biacore T100 Evaluation software v2.0.1.

[5] = molecular target: T7, recombinant human VEGF165; assay: competition AlphaScreen, bio-VEGF165 and VEGFR2-Fc
Method: (§2) Finally, streptavidin donor beads (20 μg/ml) are added and after 1 hour of incubation in the dark, fluorescence is measured on the Envision microplate reader.

[6] = molecular target: T7, recombinant human VEGF165; assay: competition ELISA, biotinylated VEGF165 to coated VEGFR2-Fc
[7] = molecular target: T7, recombinant human VEGF165; assay: competition AlphaScreen, bio-VEGF165 and VEGFR1-Fc
Method: as §2

[8] = molecular target: T7, recombinant human VEGF165; assay: binding ELISA, coated rhVEGF165
[9] = molecular target: T2, recombinant human VEGF121 (R&D Systems); assay: binding ELISA, coated recombinant human VEGF121
Method: Binding to recombinant human VEGF121 is assessed via a solid phase binding ELISA. […] Wells are blocked with a casein solution (1% in PBS).

VEGFD = molecular target: T3, VEGFD; assay: solid phase binding ELISA, 500 nM-32 pM VHH
Method: (§3) Binding to VEGFB, VEGFC, VEGFD and PIGF is assessed via a solid phase binding ELISA. […] Wells are blocked with a casein solution (1% in PBS). […] As positive controls serial dilutions of the appropriate receptors are taken along and detected with horseradish peroxidase (HRP)-conjugated goat anti-human IgG, Fc specific antibody (Jackson Immuno Research Laboratories Inc., West Grove, Pa., USA) and a subsequent enzymatic reaction in the presence of the substrate TMB (3,3′,5,5′-tetramentylbenzidine) (Pierce, Rockford, Ill., USA).

VEGFC = molecular target: T4, VEGFC; assay: solid phase binding ELISA, 500 nM-32 pM VHH
Method: as §3

VEGFB = molecular target: T5, VEGFB; assay: solid phase binding ELISA, 500 nM-32 pM VHH
Method: as §3

PIGF = molecular target: T6, PIGF; assay: solid phase binding ELISA, 500 nM-32 pM VHH
Method: as §3

[10] = molecular target: T8, recombinant human VEGF165 (human, UniProt P15692-4 27-191, biotinylated in the competition assays); assay: SPR Biacore, hVEGF165
T8 construct: Bought protein; also called hVEGF165; rhVEGF165
Method: as §1

[11] = molecular target: T8, recombinant human VEGF165; assay: ProteOn off-rate assay, periplasmic extract on coated hVEGF165
Method: One additional variant is constructed in which the potential oxidation site at position M30 (CDR1 region, see FIG. 38 indicated as bold italic residue) is removed by introduction of a M30I mutation. […] Off-rates are calculated and compared to the off-rates of the parental VEGFBII5B05.

Binder	binding result [1]	IC50 [2]	Kd [3]	kd (fast) [4]	kd (slow) [4]	IC50 [5]	IC50 [6]	IC50 [7]	EC50 [8]	EC50 [9]	binding result (VEGFD)	binding result (VEGFC)	binding result (VEGFB)	binding result (PIGF)	Kd [10]	binding level (RU) [11]	koff [11]
B1	no binding (tested: dilution series 500 nM-32 pM)	0.9 nM	0.7 nM	0.017	3.7e-05	0.25 nM	3 nM	0.4 nM	0.531 nM	0.928 nM	–	–	–	–	–	–	–
B2	–	–	–	–	–	–	–	–	–	–	no binding (tested: 500 nM)	no binding (tested: 500 nM)	no binding (tested: 500 nM)	no binding (tested: 500 nM)	–	–	–
B3	–	–	–	–	–	–	–	–	–	–	–	–	–	–	32 nM	242 RU	0.0615 s⁻¹
B4	no binding (tested: dilution series 500 nM-32 pM)	0.5 nM	0.7 nM	0.0088	4e-05	0.16 nM	2.1 nM	0.9 nM	0.297 nM	0.51 nM	–	–	–	–	–	–	–
B5	–	–	–	–	–	–	–	–	–	–	no binding (tested: 500 nM)	no binding (tested: 500 nM)	no binding (tested: 500 nM)	no binding (tested: 500 nM)	–	–	–
